Experiment in all cases: purified protein
Substrate in data set [1]: N[C@@H](Cc1ccc(O)c(O)c1)C(=O)O
The conditions noted are these: 0.1 M sodium phosphate pH 7, 40 °C, 0-7 mM substrate.

Substrate in data set [2]: Oc1cc(O)c2c(c1)O[C@H](c1ccc(O)c(O)c1)[C@@H](O)C2
The conditions noted are these: 0.1 M sodium phosphate pH 7, 40 °C, 0-10 mM substrate.

Substrate in data set [3]: Oc1ccc(O)cc1
As to conditions: 0.1 M sodium phosphate pH 7, 40 °C, 0-70 mM substrate.

Substrate in data set [4]: Oc1ccccc1O
The conditions noted are these: 0.1 M sodium phosphate pH 7, 40 °C, 0-60 mM substrate.

Substrate in data set [5]: COc1ccccc1O
As to conditions: 0.1 M sodium phosphate pH 7, 40 °C, 0-15 mM substrate.

B1: TtPPO (Thermothelomyces thermophilus ATCC 42464) (protein)
chain: RCSSDAPPPAPVGDDLTEPKELTDLFEKAKKAVIDRLHEDEKALRARGEAPRCTADKLIFRREYGSLSKDERLAYVNAVKCLQSKPPRTPASVAPGARSRFDDFVVVHIQQTLDIHYSGIFQAWHRWFVYQYEKALRDECGYTGYQPYWDWPKYASAPQDSPLFNGDPYSLGGNGEYVPHDGPVIVPPEGVSGGNISLPAGVGGGFVRTGPFANMTVNLGPVGGLADTAPGPQGGLGYNPRGLKRDLGGAMNTRYANYTTVLRLLTQPDVDAFRTVSEGVPYTVEIGPHGGIHYTIGGDPGGDLFTSPGDPAFWVHHAQMDRVWATWQALGLLPPADGGDPDPARRYTDLGKGDYAHRTWQNSPPSPFAELSDVIDMGYAAPSTTIGAVMSTTEGELCYFYL
As for B1, the Km in data set [1] is reported as 2.4(0.7) mM; in data set [2], 33.7(14.0) mM; in data set [3], 59.1(6.0) mM; in data set [4], 32.5(4.3) mM; in data set [5], 4.6(0.6) mM. The kcat in data set [1] is on record as 4.3(0.5) min^-1; in data set [2], 1619.1(549.2) min^-1; in data set [3] it was 67.5(3.9) min^-1; in data set [4], 8.6(0.6) min^-1; in data set [5], 39.3(2.2) min^-1.

B2: TtPPO (Thermothelomyces thermophilus ATCC 42464; G312N/L326A) (protein)
chain: RCSSDAPPPAPVGDDLTEPKELTDLFEKAKKAVIDRLHEDEKALRARGEAPRCTADKLIFRREYGSLSKDERLAYVNAVKCLQSKPPRTPASVAPGARSRFDDFVVVHIQQTLDIHYSGIFQAWHRWFVYQYEKALRDECGYTGYQPYWDWPKYASAPQDSPLFNGDPYSLGGNGEYVPHDGPVIVPPEGVSGGNISLPAGVGGGFVRTGPFANMTVNLGPVGGLADTAPGPQGGLGYNPRGLKRDLGGAMNTRYANYTTVLRLLTQPDVDAFRTVSEGVPYTVEIGPHNGIHYTIGGDPGGDAFTSPGDPAFWVHHAQMDRVWATWQALGLLPPADGGDPDPARRYTDLGKGDYAHRTWQNSPPSPFAELSDVIDMGYAAPSTTIGAVMSTTEGELCYFYL
With B2, in data set [2], the Km is listed as 4.3(0.3) mM and the kcat is 337.9(11.2) min^-1.

B3: TtPPO (Thermothelomyces thermophilus ATCC 42464; Y316V) (protein)
chain: RCSSDAPPPAPVGDDLTEPKELTDLFEKAKKAVIDRLHEDEKALRARGEAPRCTADKLIFRREYGSLSKDERLAYVNAVKCLQSKPPRTPASVAPGARSRFDDFVVVHIQQTLDIHYSGIFQAWHRWFVYQYEKALRDECGYTGYQPYWDWPKYASAPQDSPLFNGDPYSLGGNGEYVPHDGPVIVPPEGVSGGNISLPAGVGGGFVRTGPFANMTVNLGPVGGLADTAPGPQGGLGYNPRGLKRDLGGAMNTRYANYTTVLRLLTQPDVDAFRTVSEGVPYTVEIGPHGGIHVTIGGDPGGDLFTSPGDPAFWVHHAQMDRVWATWQALGLLPPADGGDPDPARRYTDLGKGDYAHRTWQNSPPSPFAELSDVIDMGYAAPSTTIGAVMSTTEGELCYFYL
As for B3, in data set [2], the Km is reported as 9.7(2.4) mM and the kcat is given as 547.3(84.6) min^-1.

B4: TtPPO (Thermothelomyces thermophilus ATCC 42464; G312N/Y316V) (protein)
chain: RCSSDAPPPAPVGDDLTEPKELTDLFEKAKKAVIDRLHEDEKALRARGEAPRCTADKLIFRREYGSLSKDERLAYVNAVKCLQSKPPRTPASVAPGARSRFDDFVVVHIQQTLDIHYSGIFQAWHRWFVYQYEKALRDECGYTGYQPYWDWPKYASAPQDSPLFNGDPYSLGGNGEYVPHDGPVIVPPEGVSGGNISLPAGVGGGFVRTGPFANMTVNLGPVGGLADTAPGPQGGLGYNPRGLKRDLGGAMNTRYANYTTVLRLLTQPDVDAFRTVSEGVPYTVEIGPHNGIHVTIGGDPGGDLFTSPGDPAFWVHHAQMDRVWATWQALGLLPPADGGDPDPARRYTDLGKGDYAHRTWQNSPPSPFAELSDVIDMGYAAPSTTIGAVMSTTEGELCYFYL
In the case of B4, in data set [2], the Km is reported as 10.3(0.8) mM and the kcat was 33.3(1.7) min^-1.

B5: TtPPO (Thermothelomyces thermophilus ATCC 42464; L326A) (protein)
chain: RCSSDAPPPAPVGDDLTEPKELTDLFEKAKKAVIDRLHEDEKALRARGEAPRCTADKLIFRREYGSLSKDERLAYVNAVKCLQSKPPRTPASVAPGARSRFDDFVVVHIQQTLDIHYSGIFQAWHRWFVYQYEKALRDECGYTGYQPYWDWPKYASAPQDSPLFNGDPYSLGGNGEYVPHDGPVIVPPEGVSGGNISLPAGVGGGFVRTGPFANMTVNLGPVGGLADTAPGPQGGLGYNPRGLKRDLGGAMNTRYANYTTVLRLLTQPDVDAFRTVSEGVPYTVEIGPHGGIHYTIGGDPGGDAFTSPGDPAFWVHHAQMDRVWATWQALGLLPPADGGDPDPARRYTDLGKGDYAHRTWQNSPPSPFAELSDVIDMGYAAPSTTIGAVMSTTEGELCYFYL
Take B5: in data set [2], the Km was 2.8(0.5) mM and the kcat was 415.0(35.1) min^-1.

B6: TtPPO (Thermothelomyces thermophilus ATCC 42464; G312N) (protein)
chain: RCSSDAPPPAPVGDDLTEPKELTDLFEKAKKAVIDRLHEDEKALRARGEAPRCTADKLIFRREYGSLSKDERLAYVNAVKCLQSKPPRTPASVAPGARSRFDDFVVVHIQQTLDIHYSGIFQAWHRWFVYQYEKALRDECGYTGYQPYWDWPKYASAPQDSPLFNGDPYSLGGNGEYVPHDGPVIVPPEGVSGGNISLPAGVGGGFVRTGPFANMTVNLGPVGGLADTAPGPQGGLGYNPRGLKRDLGGAMNTRYANYTTVLRLLTQPDVDAFRTVSEGVPYTVEIGPHNGIHYTIGGDPGGDLFTSPGDPAFWVHHAQMDRVWATWQALGLLPPADGGDPDPARRYTDLGKGDYAHRTWQNSPPSPFAELSDVIDMGYAAPSTTIGAVMSTTEGELCYFYL
For B6, in data set [2], the Km is 4.3(1.0) mM and the kcat is 2.9(0.3) min^-1.

The values above are taken from doi:10.1101/2021.02.26.433144v1 (biorxiv, 2021).
